# Measurements reported in publication PMC7229763.
# T1: BAF-WT (Homo sapiens, UniProt O75531 1-89)
# T1 sequence: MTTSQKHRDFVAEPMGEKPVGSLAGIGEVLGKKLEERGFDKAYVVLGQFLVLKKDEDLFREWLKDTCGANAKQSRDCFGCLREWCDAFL
# Target: T1, BAF-WT
# Experiment: ITC
binder,measurement,value
"ITC dsDNA (30 bp, same sequence as EMSA probe) (dsDNA) DNA 1: GAATCCTAACTGGGCGGAGTTATGCTGGTG DNA 2: CACCAGCATAACTCCGCCCAGTTAGGATTC",Ka,"1.89 ± 0.19 uM (as printed for KA; dimension inconsistent, possibly 10^6 M-1)"
